Experimental data taken from patent publication CN111647564A (LI XIN; CHONG TUOTUO; LONG YUFEI, dated 2020).

Target: T1, LMP1重组蛋白抗原 (SEQ ID NO.2, 213-408aa of LMP1, expressed in E. coli) (Epstein-Barr virus, UniProt P29362 187-404)
T1 construct: Recombinant fragment purified with NTA buffers (a tag from the expression vector is likely but is not described); also called LMP1蛋白
T1 chain: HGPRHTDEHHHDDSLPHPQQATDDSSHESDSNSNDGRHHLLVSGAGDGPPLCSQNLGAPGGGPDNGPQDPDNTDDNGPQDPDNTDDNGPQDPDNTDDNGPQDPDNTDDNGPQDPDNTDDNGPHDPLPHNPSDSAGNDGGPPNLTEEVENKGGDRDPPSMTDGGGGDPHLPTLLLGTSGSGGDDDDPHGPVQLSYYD
Assay: non-competitive ELISA by Beatty's method, power curve model

B1: 抗LMP1单克隆抗体 7B63B10 (secreted by hybridoma cell line 7B63B10, CCTCC NO: C2019160) (antibody, IgG2b, V domains shown)
VH: EVKLVESGGGFVQPGGSRKLSCAASGFTFSSFGMHWVRQAPEKGLEWVAYISSGSSTIYYADTVKGRFTISRDNPKNTLFLQMTSLRSEDTAMYYCARDWVLDYWGQGTTLTVSS
VL: DIVITQTPLSLPVSLGDQASVSCRSSQSLVHSNGNTYLHWYLQKPGQSPKLLIYKVSNRFSGVPDRFSGSGSGTDFTLNISRVEAEDLGVYFCSQSTHVPFTFGGGTKLEIKR
notes: Mouse (Balb/c) hybridoma antibody, Ig type IgG2b; also called LMP1 7B63B10; 本发明单克隆抗体
  Ka: 9e+09 M⁻¹
